The target of the data set is rYY1 (UniProt Q00899 1-414). Description: pull-down.
Sequence of rYY1 (Q00899 whole entry): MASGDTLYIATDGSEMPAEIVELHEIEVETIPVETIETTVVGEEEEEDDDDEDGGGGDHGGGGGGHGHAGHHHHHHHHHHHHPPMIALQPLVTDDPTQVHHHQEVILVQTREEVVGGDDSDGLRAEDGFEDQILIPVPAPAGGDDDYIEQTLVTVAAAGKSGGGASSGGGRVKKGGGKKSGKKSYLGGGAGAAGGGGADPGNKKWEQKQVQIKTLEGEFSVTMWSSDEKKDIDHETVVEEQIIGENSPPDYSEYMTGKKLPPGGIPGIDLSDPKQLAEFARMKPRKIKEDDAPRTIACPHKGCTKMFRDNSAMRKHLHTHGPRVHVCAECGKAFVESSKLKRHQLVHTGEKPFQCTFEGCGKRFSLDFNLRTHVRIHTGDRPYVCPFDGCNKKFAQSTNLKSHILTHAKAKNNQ

B1: NCRm (dsDNA)
DNA 1: AGCTTAAGTAATACGGCTATGCAAGGCA
DNA 2: TGCCTTGCATAGCCGTATTACTTAAGCT
Turning to B1, the binding result is listed as “no binding”.

B2: NCR (dsDNA)
DNA 1: AGCTTAAGTAACGCCATTTTGCAAGGCA
DNA 2: TGCCTTGCAAAATGGCGTTACTTAAGCT
B2: the binding result was “binds”.

The record behind these values is PMC8456507.
